Reference: patent US20160237160A1, “ANTI-TWEAKR ANTIBODIES AND USES THEREOF” (BAYER PHARMA AKTIENGESELLSCHAFT, priority 2013, published 2016)
Residue numbers refer to the chain shown, from its start. One block for each molecule: values may come before it.

Legend:
[1] = target: T1, TWEAKR(28-68)-HIS (TPP-1984) (Homo sapiens, UniProt Q9NP84); assay: ELISA with C-terminally truncated TWEAKR ectodomain; assay type: binding; details: coating 1 μg/ml; 0.08 and 0.3 μg/ml biotinylated IgG
T1 construct: Extracellular domain with C-terminal truncation (28-68) fused to HIS6 tag; made in house
Method: (§1) To analyze for binding, 1 μg/ml of the respective dimeric TWEAKR-Fc construct were coated and, 0.3 μg/ml and 0.08 μg/ml of biotinylated IgG were used as soluble binding partner. Detection was done with Streptavidin-HRP and Amplex-Red substrate. IgGs were biotinylated using an approximately 2-fold molar excess of biotin-LC-NHS (Pierce; Cat. No. 21347) according to manufacturer's instructions and desalted using Zeba desalting columns (Pierce; Cat. No. 89889).

[2] = target: T2, TWEAKR(34-68)-Fc fusion protein (TPP-2203) (Homo sapiens, UniProt Q9NP84); assay: ELISA with TWEAKR cysteine rich domain; assay type: binding; details: coating 1 μg/ml; 0.08 and 0.3 μg/ml biotinylated IgG
T2 construct: the truncated ectodomain 34-68 were expressed and purified as Fc fusion proteins; made in house
Description: (§2) In a first approach to characterize the binding epitope of the aforementioned antibodies, a N- and C-terminal truncation mutant of the TWEAKR ectodomain was generated and tested for its ability to bind to the different anti-TWEAKR antibodies. N-terminally, amino acids 28 to 33 and C-terminally amino acids 69 to 80 were deleted, thus the cysteine rich domain with disulfide bridges between Cys36-Cys49, Cys52-Cys67 and Cys55-Cys64 remains intact (compare FIG. 2). Both constructs, the full ectodomain 28-80 including the N- and C-terminus and the truncated ectodomain 34-68 were expressed and purified as Fc fusion proteins TPP-2202 and TPP-2203, respectively.
as §1

[3] = target: T3, TWEAKR protein (TPP-2305) (Homo sapiens, UniProt Q9NP84); assay: Biacore monovalent KD with TWEAKR protein; assay type: binding; details: first order 1:1 binding model
T3 construct: TPP-2305; hTNFRSF12Aaa28-80; Human; 30R-AT080; 168; purchased Fitzgerald Inc 30R-AT080
Method: Binding affinities of anti-TWEAKR antibodies were determined by surface plasmon resonance analysis on a Biacore T100 instrument (GE Healthcare Biacore, Inc.). Antibodies were immobilized onto a CM5 sensor chip through an indirect capturing reagent, anti-human IgG(Fc). Reagents from the “Human Antibody Capture Kit” (BR-1008-39, GE Healthcare Biacore, Inc.) were used as described by the manufacturer. Anti-TWEAKR antibodies were injected at a concentration of 10 μg/ml at 10 μl/min for 10 sec.
Sensorgrams were generated after in-line reference cell correction followed by buffer sample subtraction. The dissociation equilibrium constant (KD) was calculated based on the ratio of association (kon) and dissociation rated (koff) constants, obtained by fitting sensorgrams with a first order 1:1 binding model.

[4] = target: T4, TWEAKR-Fc fusion protein (TPP-2202), aa 28-80 (Homo sapiens, UniProt Q9NP84); assay: ELISA with TWEAKR full ectodomain; assay type: binding; details: coating 1 μg/ml; 0.08 and 0.3 μg/ml biotinylated IgG
T4 construct: the full ectodomain 28-80 including the N- and C-terminus; made in house
Description: as §2, §1

[5] = target: T5, TWEAKR-Fc mutein S40R (TPP-1987) (Homo sapiens, UniProt Q9NP84, S40R); assay: ELISA mutein binding; details: coating 62 ng/ml; biotinylated IgG from 100 nM; read-out: IC50 of antibody binding, S40R
T5 construct: the full ectodomain (amino acids 28-80) with the following single amino acid substitutions; made in house
Method: (§3) Therefore, the full ectodomain (amino acids 28-80) with the following single amino acid substitutions were expressed and purified as Fc fusion proteins: T33Q; S40R; W42A; M50A; R56P; H60K; L65Q.
(§4) To collect dose-response data, the different TWEAKR-Fc muteins were coated with a low concentration (62 ng/ml) in a 384-well Maxisorb ELISA plate and a serial 2fold dilution of biotinylated IgG starting with a concentration of 100 nM was used as soluble binding partner. Detection was done with Streptavidin-HRP and Amplex Red.
(§5) IgGs were biotinylated using an approximately 2-fold molar excess of biotin-LC-NHS (Pierce; Cat. No. 21347) according to manufacturer's instructions and desalted using Zeba desalting columns (Pierce; Cat. No. 89889). The dose-response data were fitted and IC50s determined.

[6] = target: T6, TWEAKR-Fc mutein H60K (TPP-1989) (Homo sapiens, UniProt Q9NP84, H60K); assay: ELISA mutein binding; details: coating 62 ng/ml; biotinylated IgG from 100 nM; read-out: IC50 of antibody binding, H60K
T6 construct: the full ectodomain (amino acids 28-80) with the following single amino acid substitutions; made in house
Method: as §3, §4, §5

[7] = target: T7, TWEAKR-Fc mutein W42A (TPP-1985) (Homo sapiens, UniProt Q9NP84, W42A); assay: ELISA mutein binding; details: coating 62 ng/ml; biotinylated IgG from 100 nM; read-out: IC50 of antibody binding, W42A
T7 construct: the full ectodomain (amino acids 28-80) with the following single amino acid substitutions; made in house
Method: as §3, §4, §5

[8] = target: T8, TWEAKR-Fc mutein L65Q (TPP-1990) (Homo sapiens, UniProt Q9NP84, L65Q); assay: ELISA mutein binding; details: coating 62 ng/ml; biotinylated IgG from 100 nM; read-out: IC50 of antibody binding, L65Q
T8 construct: the full ectodomain (amino acids 28-80) with the following single amino acid substitutions; made in house
Method: as §3, §4, §5

[9] = target: T9, TWEAKR-Fc mutein R56P (TPP-2683) (Homo sapiens, UniProt Q9NP84, R56P); assay: ELISA mutein binding; details: coating 62 ng/ml; biotinylated IgG from 100 nM; read-out: IC50 of antibody binding, R56P
T9 construct: the full ectodomain (amino acids 28-80) with the following single amino acid substitutions; made in house
Method: as §3, §4, §5

[10] = target: T10, TWEAKR-Fc mutein M50A (TPP-1988) (Homo sapiens, UniProt Q9NP84, M50A); assay: ELISA mutein binding; details: coating 62 ng/ml; biotinylated IgG from 100 nM; read-out: IC50 of antibody binding, M50A
T10 construct: the full ectodomain (amino acids 28-80) with the following single amino acid substitutions; made in house
Method: as §3, §4, §5

TWEAKR-Fc WT (TPP-599) = target: T11, TWEAKR-Fc WT (TPP-599) (Homo sapiens, UniProt Q9NP84); assay: ELISA mutein binding; details: coating 62 ng/ml; biotinylated IgG from 100 nM; read-out: IC50 of antibody binding, WT
T11 construct: TPP-599; HUMAN-TNFRSF12Aaa28-80-hIgG1-Fc; 138; made in house
Method: as §3, §4, §5

[11] = target: T12, TWEAKR-Fc mutein T33Q (TPP-1986) (Homo sapiens, UniProt Q9NP84, T33Q); assay: ELISA mutein binding; details: coating 62 ng/ml; biotinylated IgG from 100 nM; read-out: IC50 of antibody binding, T33Q
T12 construct: the full ectodomain (amino acids 28-80) with the following single amino acid substitutions; made in house
Method: as §3, §4, §5

TWEAKR = TWEAKR (Homo sapiens, UniProt Q9NP84); details: published data; read-out: KD / binding affinity to TWEAKR (published); cited from earlier work

ELISA binding to C-terminally truncated ectodomain (28-68) [1]: impaired binding
ELISA binding to N- and C-terminally truncated construct (34-68) [2]: impaired binding
ka [3]: 2.31e+06 M⁻¹ s⁻¹
kd [3]: 0.00122 s⁻¹
ELISA binding to full ectodomain (28-80) [4]: saturated binding
IC50 [5]: 0.001 to 0.15 nM
IC50 [6]: 0.001 to 0.15 nM
IC50 [7]: > 50 nM
IC50 [8]: 0.001 to 0.15 nM
IC50 [9]: 0.001 to 0.15 nM
IC50 [10]: 0.001 to 0.15 nM
IC50 (TWEAKR-Fc WT (TPP-599)): 0.001 to 0.15 nM
IC50 [11]: 0.001 to 0.15 nM
B1: P3G5(TPP-2195): reference anti-TWEAKR antibody, murine IgG2a, from WO2009/140177; SEQ ID NO 121/122 (protein)
light: DIVLTQSPASLAVSLGQRATISCRANKSVSTSSYSYMHWYQQKPGQPPKLLIKYASNLESGVPARFSGSGSGTDFILNIHPVEEEDAATYYCQHSRELPFTFGSGTKLEIKRADAAPTVSIFPPSSEQLTSGGASVVCFLNNFYPKDINVKWKIDGSERQNGVLNSWTDQDSKDSTYSMSSTLTLTKDEYERHNSYTCEATHKTSTSPIVKSFNRNEC
heavy: QVQLQQSGPEVVRPGVSVKISCKGSGYTFTDYGIHWVKQSHAKSLEWIGVISTYNGYTNYNQKFKGKATMTVDKSSSTAYMELARLTSEDSAIYYCARAYYGNLYYAMDYWGQGTSVTVSSAKTTAPSVYPLAPVCGDTTGSSVTLGCLVKGYFPEPVTLTWNSGSLSSGVHTFPAVLQSDLYTLSSSVTVTSSTWPSQSITCNVAHPASSTKVDKKIEPRGPTIKPCPPCKCPAPNLLGGPSVFIFPPKIKDVLMISLSPIVTCVVVDVSEDDPDVQISWFVNNVEVHTAQTQTHREDYNSTLRVVSALPIQHQDWMSGKEFKCKVNNKDLPAPIERTISKPKGSVRAPQVYVLPPPEEEMTKKQVTLTCMVTDFMPEDIYVEWTNNGKTELNYKNTEPVLDSDGSYFMYSKLRVEKKNWVERNSYSCSVVHEGLHNHHTTKSFSRTPG
modifications: Mus Musculus

ka [3]: 1.64e+07 M⁻¹ s⁻¹
kd [3]: 0.0285 s⁻¹
IC50 [5]: 0.001 to 0.15 nM
IC50 [6]: 0.001 to 0.15 nM
IC50 [7]: > 50 nM
IC50 [8]: 0.001 to 0.15 nM
IC50 [9]: > 50 nM
IC50 [10]: 0.001 to 0.15 nM
IC50 (TWEAKR-Fc WT (TPP-599)): 0.001 to 0.15 nM
IC50 [11]: 0.001 to 0.15 nM
B2: 18.3.3(TPP-2193): reference anti-TWEAKR antibody, murine IgG2a, from WO2009/020933; SEQ ID NO 129/130 (protein)
light: DIVLTQSPASLAVSLGQRATISCKASQSVSTSTYSYMQWYQQRPGQSPKLLIKYASKLDSGVPARFSGSGSGTDFTLNIHPVEEEDTATYYCQHSWELPYTFGGGTRLEIKRADAAPTVSIFPPSSEQLTSGGASVVCFLNNFYPKDINVKWKIDGSERQNGVLNSWTDQDSKDSTYSMSSTLTLTKDEYERHNSYTCEATHKTSTSPIVKSFNRNEC
heavy: EVKLGESGGGLVQPGGSMKLSCVASGFPFTKYWMNWVRQSPEKGLEWVAEIRLKSDNYATHYAESAKGRFTISRDDSRSSVYLQMNNLRAEDTAIYYCSPTYADTMDYWGQGTSVTVSSAKTTAPSVYPLAPVCGDTTGSSVTLGCLVKGYFPEPVTLTWNSGSLSSGVHTFPAVLQSDLYTLSSSVTVTSSTWPSQSITCNVAHPASSTKVDKKIEPRGPTIKPCPPCKCPAPNLLGGPSVFIFPPKIKDVLMISLSPIVTCVVVDVSEDDPDVQISWFVNNVEVHTAQTQTHREDYNSTLRVVSALPIQHQDWMSGKEFKCKVNNKDLPAPIERTISKPKGSVRAPQVYVLPPPEEEMTKKQVTLTCMVTDFMPEDIYVEWTNNGKTELNYKNTEPVLDSDGSYFMYSKLRVEKKNWVERNSYSCSVVHEGLHNHHTTKSFSRTPG
modifications: Mus Musculus
Kd (TWEAKR): 0.2 nM

ka [3]: 3.84e+07 M⁻¹ s⁻¹
kd [3]: 0.0324 s⁻¹
IC50 [5]: 0.001 to 0.15 nM
IC50 [6]: 0.001 to 0.15 nM
IC50 [7]: > 50 nM
IC50 [8]: 0.001 to 0.15 nM
IC50 [9]: > 50 nM
IC50 [10]: 0.001 to 0.15 nM
IC50 (TWEAKR-Fc WT (TPP-599)): 0.001 to 0.15 nM
IC50 [11]: 0.001 to 0.15 nM
B3: 136.1(TPP-2194): reference anti-TWEAKR antibody, murine IgG2a, from WO2009/020933; SEQ ID NO 123/124 (protein)
light: B2 light with A12T, K24R, T33S, S47P, S56T, K57N, T87A, L98I, R107K
heavy: EVKLEESGGGLVQPGGSMKLSCVASGFTFNNYWMSWVRQSPEKGLEWLAEIRLKSDNYATHYAESVKGKFTISRDDSKSRLYLQMNNLRAENTGIYYCTGGFADYFDYWGQGTTLTVSSAKTTAPSVYPLAPVCGDTTGSSVTLGCLVKGYFPEPVTLTWNSGSLSSGVHTFPAVLQSDLYTLSSSVTVTSSTWPSQSITCNVAHPASSTKVDKKIEPRGPTIKPCPPCKCPAPNLLGGPSVFIFPPKIKDVLMISLSPIVTCVVVDVSEDDPDVQISWFVNNVEVHTAQTQTHREDYNSTLRVVSALPIQHQDWMSGKEFKCKVNNKDLPAPIERTISKPKGSVRAPQVYVLPPPEEEMTKKQVTLTCMVTDFMPEDIYVEWTNNGKTELNYKNTEPVLDSDGSYFMYSKLRVEKKNWVERNSYSCSVVHEGLHNHHTTKSFSRTPG
modifications: Mus Musculus
Kd (TWEAKR): 0.7 nM
